1 molecule from article PMC2755859 (The Journal of Biological Chemistry, 2009) can be followed below.

This test deals with pICln (UniProt P54105 1-237). Kind of test: pull-down.

B1: GST-PRMT5reg (domain or fragment)
chain: MAAMAVGGAGGSRVSSGRDLNCVPEIADTLGAVAKQGFDFLCMPVFHPRFKREFIQEPAKNRPGPQTRSDLLLSGRDWNTLIVGKLSPWIRPDSKVEKIRRNSEAAMLQELNFGAYLGLPAFLLPLNQEDNTNLARVLTNHIHTGHHSSMFWMRVPLVAPEDLRDDIIENAPTTHTEEYSGEEKTWMWWHNFRTLCDYSKRIAVALEIGADLPSNHVIDRWLGEPIKAAILPTSIFLTNKKGFPVLSKMHQRLIFRLLKLEVQFIITGTNHHSEKEFCSYLQYLEYLSQN
On to B1, for which the binding result is on record as “binds”.
